Experiment: soluble on expression in E. coli; label from the status in PepcDB or PDB records

| Sequence | soluble on expression in E. coli |
| --- | --- |
| MGIDPGTGSMDVLGFDDESNNVFLEESIPRDEVTRDPSLPLRIVEEASAKVGGLDAVVAPSGYGMPLKRASETAPGDICEATFIHSSDEVLGLRIVGLRRLMALFASSDLPAWFTPGVIHLPTVPAWRKVGRIDMGTADKLYTVAAALRTEVEYHGVEPEAARFIAVEAGMAYTAAVAVVGGKVVDGVGGTSGFHGFMGGGAMDGEAAYALAAVAPRFSKSLLFKGGAGWVAGVSSPVELEEKASEGGGLEALEMLGEGVVKSVATLLPSLRPEGGEVRVYVSGRLFSLGRLGSELRSRLRDFISSIGLTPRVLTIERLGSKTKEGASGAALVASGLAGGRYKWLVDHLELERSSGSIFDHLPVDEDLRRAVRLEFRSCSPLGEA | not soluble |
| MGIDVVMTNRRGEPPPELSTLPCFPFKWEQQGEQLPLAPAALEGVTHVLNGIPPDRQGEDAVALALLPQLEKLNLHWFGYLSTTGVYGDRQGGWVDETTPVNPQNLRSQHRVRIEQVFLNANLPTHIFRLPGIYGPGEGRNPIARILKGDVQLIDKPGHYFCRIHVADIVQTLERSLAQPTPQEIYNLSDDQPSESLPVLLEAYRLLGRPAPPAIPLEAANLSPMAQSFWRESRRVRNDKIKQALGVQLRYPSYREGLRAIARELGLEHHHHHH | not soluble |
| MGIKGDKKATSDQARLARLTLEGNSGNEEDIQFMIKTIIETTGCTQAQAEIALLDTDNNLYGAIDHILDAGDKLDSWTEQKGAKKEKKKPEEGSYNNRGFVARGRGGGTGFVDRGGRGRSNGAPRESRDNNRDNRDNKEGAAPRSTRGGFEKPYVGRGGRGGARGGYSRAVAPSSALEPDAFTADLDENQTKVDTTVTEVQPPVEESVTATVPTSSAPAPISFAAVAAAAHRKEALRKHQAQNPQPAAPPRRSLSPQPPLPSVAPVKEEPAAAPVFFEPETSHQPEKEDGFFQNESSVLAEEQTPNVSTHHDENVQSTPEPNQAWTTQLKTDLGIGLSEAPGLGLSPIPSAAPVQIIPDPGVEFVGTTAPTNIHDYSFGFVEAAPSPQLPSTESSAASISNASENIFNSSRIMPKQVEPERTSIPNGDYNLKSTSPPLSYGQSNRGLSYDTSSASYQPTDRMAPNKFNNSGPLPTQQSAQQHQPQQQQQQAPQQPVQQQQQTPPAQSQPTGHPQQHPHMMFTQQLPYAPYMNNYMNMYNPMPGVRDEQYTAALMQYGMGVDLTSLLPTAPLSQAASAQQVQSGQQRETHGLMDFNKFGSQSSRDQQPQQASNVGPPPGFQATNYMQQPNLSSLFMQQYSPAPHQFTPFMNMMPNVGSSAGGRQLYGQDDERKSYDKMSGSKPAAQQNQHSQYQHNGGNLGKYGMNKPYNWSN | not soluble |
| MGIMPRKVLAIKNFKERFDLLPKLKGVIAEKQPDILVVVGNILKNEALEKEYERAHLARREPNRKVIHENEHYIIETLDKFFREIGELGVKTFVVPGKNDAPLKIFLRAAYEAETAYPNIRVLHEGFAGWRGEFEVIGFGGLLTEHEFEEDFVLKYPRWYVEYILKFVNELKPRRLVTIFYTPPIGEFVDRTPEDPKHHGSAVVNTIIKSLNPEVAIVGHVGKGHELVGNTIVVNPGEFEEGRYAFLDLTQHKIKLEQFS | soluble |
| MGKALPFYLSPYPVDFWTNASFSDEEHEDAALSNSHLGRNAMVPPQGRSGPASWILRSVRDPGFAPCPPWSWIYHQFRIAWLRCVVRMDGRAPQVQTGQSTSPAKAASNATALQDQA | not soluble |
| MGKEIQLKPKANVSSYVHFLLNYRNKFKEQQPSTYVGFKEFSRKCSEKWRSISKHEKAKYEALAKLDKARYQEEMMNYVGKRKKRRKRDPQAPRRPPSSFLLFCQDHYAQLKRENPNWSVVQVAKATGKMWSTATDLEKHPYEQRVALLRAKYFEELELYRKQCNARKKYRMSARNRCRGKRVRQS | not soluble |
| MGKLALAAKITHVPSMYLSELPGKNHGCRQGAIDGHKEISKRCREMGVDTIIVFDTHWLVNSAYHINCADHFEGVYTSNELPHFIRDMTYNYEGNPELGQLIAEEALKLGVRAKAHNIPSLKLEYGTLVPMRYMNEDKHFKVVSISAFCTVHDFADSRKLGEAILKAIEQYDGTVAVLASGSLSHRFIDDQRAEEGMNSYTREFDRQMDERVVKLWREGQFKEFCNMLPEYADYCYGEGNMHDTVMLLGMLGWDKYDGKVEFITELFPSSGTGQVNAVFPLPA | not soluble |
| MGKRLLDKLWERHVVTTNENGLDLLYIDLHLVHEVTSPQAFEGLRLTNRTVRRPDLTFATMDHNIPTKDVWNITDRIAKQQLDTLRENCKQFQVPLADIGDEEQGIVHVIGPELGLTQPGKTIVCGDSHTATHGAFGALAFGIGTSEVEHVLATQTLWQRKPKAMGIELKGKLQKGVYAKDIILHLLSKYGVAVGTGYVMEFYGETIGTMEMEERMTLCNMAIEGGAKAGIIAPDEKTFAYVKGRKYAPRDYETFEKKWFELYTDADAIYDLHISIDVTDLAPYVTWGTNPSMGVRIDEKLPEKHDVNDERAFSYMGLIPGQSTYDIPVQHVFIGSCTNSRLSDLEIAASVVKGRKVKEGVRALVVPGSKRVRDAAMQKGLHHIFEEAGFEWREPGCSMCLGMNPDQVPEGEHCASTSNRNFEGRQGKGARTHLVSPAMAAAAALYGHFVDIRKESYDGAISYS | not soluble |
| MGLKAINTSLSKNDLAHLGAGEVGYIRKMRSEEVSRCFPEAPEMGPGIDLWALFGADGTPILLTDNRSSTFFKAAEDDLRTVSLH | not soluble |
| MGLLDLIGRKRARDKPQNSYEGQDFSYLFGRTTSGENVDEFKTMQTTAVYACVRVLAEAVASLPIHIYERTENGKEKKLDHPLYFLLHDEPNPEMSSFIFRETIMSHLLIWGNAYVQIIRDKSGMVSLLLKQKASVLIRKLLLIIWQRMP | not soluble |
| MGLPKSAYKKLLIDCPTRVINKNCAQRVKDVSPLITNFEKWSDKRKKLYFKDEEEMVGQFHLENFNLKNNLYGRLLASPMRAEKISKLKSCRELLIPLKVVPSTGKDQHADKDKLKLVPTLDYSKSYKSSYVLNSASIVQDNLAAATSWFPISVLQTSTPKSLEVDSSTFITEYNANLHAFIKARLSVIPNVGPSSINRVLLICDKRKTPPIEIQVVSHGKGLPITQSVFNLGYLHEPTLEAIVSKDAVTNGIYLDADNDKDLIKHLYSTLLFHSVN | not soluble |
| MGLQTYNAKRSFDKTPEPKGTKAEKPGSSFVIQKHDARRLHYDFRLEMDGVLKSWAVTRGPSLDPEDKRLAVHVEDHPLSYGDFEGVIPKGQYGGGTVIVWDRGIWQPIGDAGKGYRKGHLEFELEGEKLKGRWHLVRMHGKPGESRENWLLIKGDDEEARHLEHHHHHH | soluble |
| MGLVIYDTLARRKVPFEPAVPGHVGIYVCGPTVYADPHLGHARGPVVYDVLRRYLLHKGYKVRFVSNITDVGHLTDDADEGEDKIVRRAKLERLEPMEVAEKYTWSYFDAMQALNVLRPSIAPRASGHIPEMLELTERLLARGVAYERKGSVYFRVRSFPEYGKLSGKRLEELRAGARVEVREEKEDPLDFALWKAAEPGHIMRWKSPWGEGYPGWHIECTAMSLKYLGEGFDLHAGGIDLQFPHHECEIAQAEAAGFRFARHWMHHNHVLLEGEKMAKSTGNLVLLHDLLEAHEPMALRFYLLQTHYRSPMDFTWEGLESAKRGYGRLLHAYREVRGRKKTAPPGTTPELERALDALEKAFMEAIEDDLSTPEALAALFAFLPELHKLLPEAKAESLARAEAVFHTLGEGILGLFPERVLEERVSGPLLEGLIALLLELREEARRAKDYEKSDLIRERLRALGVIVEDTKEGPRWRLER | soluble |
| MGLWFEEGAEERQVLGPFREFLKAEVAPGAAERDRTGAFPWDLVRKLAEFGVFGALVPEAYGGAGLSTRLFARMVEAIAYYDGALALTVASHNSLATGHILLAGSEAQKEAFLPKLASGEALGAWGLTEPGSGSDAAALKTKAEKVEGGWRLNGTKQFITQGSVAGVYVVMARTDPPPSPERKHQGISAFAFFRPERGLKVGRKEEKLGLTASDTAQLILEDLFVPEEALLGERGKGFYDVLRVLDGGRIGIAAMAVGLGQAALDYALAYAKGREAFGRPIAEFEGVSFKLAEAATELEAARLLYLKAAELKDAGRPFTLEAAQAKLFASEAAVKACDEAIQILGGYGYVKDYPVERYWRDARLTRIGEGTSEILKLVIARRLLEAV | soluble |
| MGLYLKGPSYKQVARILGMSHYRMKMLAMKKREVDDTVTKINGERRYLWAAIDVESREILAILEHHHHHH | not soluble |

Reference: the DeepSol protein solubility set
